Target: CspA (UniProt P0A9X9 1-70)
Assay: molecular beacon unfolding

Sequence of CspA (P0A9X9 whole entry): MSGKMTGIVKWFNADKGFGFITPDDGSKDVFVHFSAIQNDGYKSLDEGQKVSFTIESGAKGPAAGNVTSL

B1: 78-nt molecular beacon (structured_DNA)
DNA: AGGGTTCTTTGTGGTGTTTTTATCTGTGCTTCCCTATGCACCGCCGACGACAGTCGCTAACCTCTCGCTAAGAACCCT
B1: binds.

Source: publication doi:10.1101/2024.06.04.597356
